In IntAct's records for PubMed 23824069:

B1: Phosphatidylinositol 4,5-bisphosphate 3-kinase catalytic subunit gamma isoform (Homo sapiens), P48736 (parent)
chain: MELENYKQPVVLREDNCRRRRRMKPRSAAASLSSMELIPIEFVLPTSQRKCKSPETALLHVAGHGNVEQMKAQVWLRALETSVAADFYHRLGPHHFLLLYQKKGQWYEIYDKYQVVQTLDCLRYWKATHRSPGQIHLVQRHPPSEESQAFQRQLTALIGYDVTDVSNVHDDELEFTRRGLVTPRMAEVASRDPKLYAMHPWVTSKPLPEYLWKKIANNCIFIVIHRSTTSQTIKVSPDDTPGAILQSFFTKMAKKKSLMDIPESQSEQDFVLRVCGRDEYLVGETPIKNFQWVRHCLKNGEEIHVVLDTPPDPALDEVRKEEWPLVDDCTGVTGYHEQLTIHGKDHESVFTVSLWDCDRKFRVKIRGIDIPVLPRNTDLTVFVEANIQHGQQVLCQRRTSPKPFTEEVLWNVWLEFSIKIKDLPKGALLNLQIYCGKAPALSSKASAESPSSESKGKVQLLYYVNLLLIDHRFLLRRGEYVLHMWQISGKGEDQGSFNADKLTSATNPDKENSMSISILLDNYCHPIALPKHQPTPDPEGDRVRAEMPNQLRKQLEAIIATDPLNPLTAEDKELLWHFRYESLKHPKAYPKLFSSVKWGQQEIVAKTYQLLARREVWDQSALDVGLTMQLLDCNFSDENVRAIAVQKLESLEDDDVLHYLLQLVQAVKFEPYHDSALARFLLKRGLRNKRIGHFLFWFLRSEIAQSRHYQQRFAVILEAYLRGCGTAMLHDFTQQVQVIEMLQKVTLDIKSLSAEKYDVSSQVISQLKQKLENLQNSQLPESFRVPYDPGLKAGALAIEKCKVMASKKKPLWLEFKCADPTALSNETIGIIFKHGDDLRQDMLILQILRIMESIWETESLDLCLLPYGCISTGDKIGMIEIVKDATTIAKIQQSTVGNTGAFKDEVLNHWLKEKSPTEEKFQAAVERFVYSCAGYCVATFVLGIGDRHNDNIMITETGNLFHIDFGHILGNYKSFLGINKERVPFVLTPDFLFVMGTSGKKTSPHFQKFQDICVKAYLALRHHTNLLIILFSMMLMTGMPQLTSKEDIEYIRDALTVGKNEEDAKKYFLDQIEVCRDKGWTVQFNWFLHLVLGIKQGEKHSA
partner: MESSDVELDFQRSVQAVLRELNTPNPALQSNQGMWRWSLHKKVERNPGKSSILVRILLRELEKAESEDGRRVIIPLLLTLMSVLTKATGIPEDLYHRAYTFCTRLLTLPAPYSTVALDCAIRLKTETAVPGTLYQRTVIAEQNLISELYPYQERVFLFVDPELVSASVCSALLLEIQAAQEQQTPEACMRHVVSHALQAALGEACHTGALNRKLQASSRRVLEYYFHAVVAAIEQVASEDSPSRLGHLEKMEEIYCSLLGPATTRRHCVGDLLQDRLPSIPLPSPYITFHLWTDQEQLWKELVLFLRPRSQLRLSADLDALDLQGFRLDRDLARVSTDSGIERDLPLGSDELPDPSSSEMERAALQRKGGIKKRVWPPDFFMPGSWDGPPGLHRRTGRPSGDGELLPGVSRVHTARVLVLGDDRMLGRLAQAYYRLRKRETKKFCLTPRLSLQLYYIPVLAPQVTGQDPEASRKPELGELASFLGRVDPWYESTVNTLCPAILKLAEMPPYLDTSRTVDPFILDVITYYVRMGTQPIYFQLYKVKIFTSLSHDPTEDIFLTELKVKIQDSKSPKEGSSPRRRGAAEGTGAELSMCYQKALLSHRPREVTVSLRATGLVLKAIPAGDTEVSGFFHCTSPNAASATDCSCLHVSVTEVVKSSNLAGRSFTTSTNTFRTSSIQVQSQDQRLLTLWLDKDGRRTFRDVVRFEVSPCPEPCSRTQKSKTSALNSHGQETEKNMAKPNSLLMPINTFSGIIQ

Variants of: B1
Conditions: with pi3r6_mouse Pik3r6, Q3U6Q4

effect of a mutation on the interaction | Variant
decreasing interaction strength | S582E
decreasing interaction strength | S582D
